The record followed here is patent US20230052369A1 (Zymeworks, published 2023).

To fix the notation:
B1: v29681 (scFv)
scFv: EVQLVESGGGLVQPGGSLRLSCAASGFTISNNYYMCWVRQAPGKGLEWIACIYGGISGRTYYADSAKGRFTISKDSSNTVYLQMNSLRAEDTAVYYCVRGYVGTSNLWGQGTLVTVSSGGSGGGSGGGSGGGSGGGSGDIQMTQSPSSLSASVGDRVTITCQASQSIYSSLAWYQQKPGKAPKLLIYDASHLASGVPSRFSGSRYGTDFTLTISSVQPEDFATYYCQGGWYSSAATYVPNTFGGGTKVEVK
notes: One-armed, scFv at the C-terminus of Het FcA (GGGG linker); also called C-term VH-(long)-VL
B2: v29685 (scFv)
scFv: B1 scFv with G45C, G244C
notes: One-armed, scFv at the C-terminus of Het FcA; VL-G100C and VH-G44C already in the entry; also called C-term VH-(long)-VL + disulfide
B3: v29680 (scFv)
scFv: DIQMTQSPSSLSASVGDRVTITCQASQSIYSSLAWYQQKPGKAPKLLIYDASHLASGVPSRFSGSRYGTDFTLTISSVQPEDFATYYCQGGWYSSAATYVPNTFGGGTKVEVKGGSGGGSGGGSGGGSGGGSGEVQLVESGGGLVQPGGSLRLSCAASGFTISNNYYMCWVRQAPGKGLEWIACIYGGISGRTYYADSAKGRFTISKDSSNTVYLQMNSLRAEDTAVYYCVRGYVGTSNLWGQGTLVTVSS
notes: One-armed, scFv at the C-terminus of Het FcA (GGGG linker); also called C-term VL-(long)-VH
B4: v29679 (scFv)
scFv: EVQLVESGGGLVQPGGSLRLSCAASGFTISNNYYMCWVRQAPGKGLEWIACIYGGISGRTYYADSAKGRFTISKDSSNTVYLQMNSLRAEDTAVYYCVRGYVGTSNLWGQGTLVTVSSGGGGSGGGGSGGGGSDIQMTQSPSSLSASVGDRVTITCQASQSIYSSLAWYQQKPGKAPKLLIYDASHLASGVPSRFSGSRYGTDFTLTISSVQPEDFATYYCQGGWYSSAATYVPNTFGGGTKVEVK
notes: One-armed, scFv at the C-terminus of Het FcA (GGGG linker); also called C-term VH-(short)-VL
B5: v29683 (scFv)
scFv: B4 scFv with G45C, G239C
notes: One-armed, scFv at the C-terminus of Het FcA; VL-G100C and VH-G44C already in the entry; also called C-term VH-(short)-VL + disulfide

Residue numbers refer to the chain shown, from its start. In names and notes the source's numbering stands.

T1 sequence (P15328 25-234 limits assumed): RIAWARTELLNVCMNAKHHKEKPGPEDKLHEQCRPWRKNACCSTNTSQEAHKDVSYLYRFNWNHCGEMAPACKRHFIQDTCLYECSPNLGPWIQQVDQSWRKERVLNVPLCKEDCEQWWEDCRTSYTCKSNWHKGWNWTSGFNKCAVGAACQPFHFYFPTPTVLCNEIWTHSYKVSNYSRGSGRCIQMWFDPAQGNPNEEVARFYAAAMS

This experiment addresses T1, recombinant His-tagged human FRα (human, UniProt P15328 25-234).
T1 construct: Bought protein; also called hFRα; FRα-HIS
The experiment in a line: BLI, n=2.
Procedure: The assay buffer used was KB buffer (kinetics buffer, composed of PBS pH 7.4, 0.1% BSA, 0.02% Tween 20, 0.05% sodium azide) supplemented with 0.06% Tween 20. The experiment was conducted at 25° C. with a shake speed of 1000 rpm.
Data analysis was performed using the Data analysis software 9.0′ (ForteBio). The reference-subtracted binding curves were globally fitted to the 1:1 interaction model to generate the binding kinetic parameters kₒₙ, koff, and the dissociation constant KD.
All parameters remained the same except for the dissociation phase which was recorded for 1500 s.
Take B1: the Kd amounted to 2.6 nM. As for B2, the Kd turned out to be 4.2 nM. Next, B3: 1.8 nM; B4: 0.39 nM; B5: 1.1 nM.

As a reminder, the Kd is the free concentration of one partner at which half of the binding sites on the other are occupied at equilibrium, for simple one-to-one binding.
